Two molecules from PMC7959576 (Proceedings of the National Academy of Sciences of the …, 2020) can be followed below.

For this assay, the target named is CHIKV VLPs, E1-E2 heterodimers on the particle surface (Chikungunya virus, VLP strain not …, UniProt Q5XXP3). Description: ELISA.
CHIKV VLPs, E1-E2 heterodimers on the particle surface, sequence (Q5XXP3 whole entry, looked up, one chain of several): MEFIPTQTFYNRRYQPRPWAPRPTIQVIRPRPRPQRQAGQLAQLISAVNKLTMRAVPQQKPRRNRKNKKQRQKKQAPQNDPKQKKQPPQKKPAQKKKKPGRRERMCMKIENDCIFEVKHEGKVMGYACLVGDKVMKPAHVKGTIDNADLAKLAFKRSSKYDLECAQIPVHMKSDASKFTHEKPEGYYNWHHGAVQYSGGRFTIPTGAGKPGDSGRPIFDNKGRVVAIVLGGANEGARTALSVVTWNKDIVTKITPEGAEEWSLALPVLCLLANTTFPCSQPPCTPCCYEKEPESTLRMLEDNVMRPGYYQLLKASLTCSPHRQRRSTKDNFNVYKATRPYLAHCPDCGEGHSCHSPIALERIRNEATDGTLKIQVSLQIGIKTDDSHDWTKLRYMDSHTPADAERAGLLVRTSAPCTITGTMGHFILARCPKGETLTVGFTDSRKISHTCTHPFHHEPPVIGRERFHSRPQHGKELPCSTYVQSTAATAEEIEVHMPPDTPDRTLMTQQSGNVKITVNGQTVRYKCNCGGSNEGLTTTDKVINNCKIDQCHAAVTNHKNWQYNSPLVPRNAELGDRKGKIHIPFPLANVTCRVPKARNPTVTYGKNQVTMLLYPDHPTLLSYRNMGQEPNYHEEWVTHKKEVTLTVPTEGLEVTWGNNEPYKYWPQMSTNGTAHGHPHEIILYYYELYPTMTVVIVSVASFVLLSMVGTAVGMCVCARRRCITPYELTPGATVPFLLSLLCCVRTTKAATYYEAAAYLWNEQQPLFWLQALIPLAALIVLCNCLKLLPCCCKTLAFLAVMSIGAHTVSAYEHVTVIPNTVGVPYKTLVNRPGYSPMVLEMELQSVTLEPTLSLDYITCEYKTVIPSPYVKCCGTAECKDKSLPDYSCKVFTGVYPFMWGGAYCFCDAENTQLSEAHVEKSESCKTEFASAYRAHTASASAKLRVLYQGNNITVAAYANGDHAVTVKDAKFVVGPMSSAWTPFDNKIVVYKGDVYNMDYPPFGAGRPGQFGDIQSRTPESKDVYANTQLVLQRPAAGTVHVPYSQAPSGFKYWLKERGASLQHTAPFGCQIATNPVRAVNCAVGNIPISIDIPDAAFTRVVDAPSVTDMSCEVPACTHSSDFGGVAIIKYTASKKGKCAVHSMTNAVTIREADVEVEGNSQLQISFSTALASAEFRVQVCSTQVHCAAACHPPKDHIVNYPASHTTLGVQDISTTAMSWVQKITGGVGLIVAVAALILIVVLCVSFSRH

B1: CHK-263 IgG (antibody, V domains shown)
VH: VQLQQSGAELVKPGASVKISCKASGYAFSSYWMNWVKQRPGKGLEWIGQIYPGDGDTNYNGKFKGKATLTADKSSSTAYMQLSSLTSEDSAVYFCARGGLTIDYWGQGTTLTVSS
VL: DIVLTQSPATLSVTPGDSVSLSCRASQSISDNLHWYQQKSHESPGLLIKYASQSISGIPSRFSGSGSGTDFTLSINSVETEDFGMYFCQQSNSWPYTFGGGTKLEIK
In the case of B1, the binding result was “binds”.

B2: CHK-124 IgG (antibody, V domains shown)
VH: QLQESGGGLVQPGGSMKLSCVASGFTFSNYWMNWVRQSPEKGLEWVAQIRLKSDSYATYYADSVKGRFTVSRDDSKSNVYLQMNSLRAEDTGIYYCTDFYGFGDFFPYWGQGTLVTVSS
VL: DIVMTQSPKFMSTSIGDRVSVTCQASQNVGTNVAWYQQKPGQSPKPLIYSASYRYSGVPGRFTGSGSGTDFTLTINNVQSEDLADYFCQQYNSFPLTFGAGTKLELK
Turning to B2, the binding result is “binds”.
